Results from patent publication US20080199851A1.

Experiments:
[1] = target: A/Beijing/95(H1N1) (Influenza A virus A/Beijing/95 (H1N1)); assay: lateral-flow sandwich, A line: 7304 striped + M4090913-Eu
[2] = target: A/Taiwan/1/86 (H1N1) (Influenza A virus A/Taiwan/1/86 (H1N1)); assay: as above
[3] = target: B/Shanghai/2002 (Influenza B virus B/Shanghai/2002); assay: as above
[4] = target: Bar-headed GS/QH/15/2005 (H5N1) (Influenza A virus Bar-headed GS/QH/15/2005 (H5N1)); assay: as above
[5] = target: DK/VNM/568/2005 (H5N1) (Influenza A virus DK/VNM/568/2005 (H5N1)); assay: as above
[6] = target: A/Beijing/95(H1N1) (Influenza A virus A/Beijing/95 (H1N1)); assay: lateral-flow sandwich, B line: M2110171 striped + 2/3-Eu
[7] = target: A/Taiwan/1/86 (H1N1) (Influenza A virus A/Taiwan/1/86 (H1N1)); assay: as above
[8] = target: B/Shanghai/2002 (Influenza B virus B/Shanghai/2002); assay: as above
[9] = target: Bar-headed GS/QH/15/2005 (H5N1) (Influenza A virus Bar-headed GS/QH/15/2005 (H5N1)); assay: as above
[10] = target: DK/VNM/568/2005 (H5N1) (Influenza A virus DK/VNM/568/2005 (H5N1)); assay: as above
[11] = target: H5N1 virus strain A1; assay: cell-based or functional assay
[12] = target: H5N1 virus strain A2; assay: cell-based or functional assay
[13] = target: H5N1 virus strain A3; assay: cell-based or functional assay
[14] = target: H5N1 virus strain A5; assay: cell-based or functional assay
[15] = target: H5N1 virus strain A6; assay: cell-based or functional assay
[16] = target: H5N1 virus strain A7; assay: cell-based or functional assay
[17] = target: H5N1 virus strain A8; assay: cell-based or functional assay
[18] = target: H5N1 virus strain B1; assay: cell-based or functional assay
[19] = target: H5N1 virus strain B2; assay: cell-based or functional assay
[20] = target: H5N1 virus strain B3; assay: cell-based or functional assay
[21] = target: H5N1 virus strain B4; assay: cell-based or functional assay
[22] = target: H5N1 virus strain B5; assay: cell-based or functional assay
[23] = target: H5N1 virus strain B6; assay: cell-based or functional assay
[24] = target: H5N1 virus strain B7; assay: cell-based or functional assay
[25] = target: H5N1 virus strain B8; assay: cell-based or functional assay
[26] = target: H5N1 virus strain C2; assay: cell-based or functional assay
[27] = target: H5N1 virus strain C3; assay: cell-based or functional assay
[28] = target: H5N1 virus strain D1; assay: cell-based or functional assay
[29] = target: H5N1 virus strain D2; assay: cell-based or functional assay
[30] = target: H5N1 virus strain E1; assay: cell-based or functional assay
[31] = target: H5N1 virus strain E2; assay: cell-based or functional assay
[32] = target: H5N1 virus strain F2; assay: cell-based or functional assay
[33] = target: H5N1 virus strain F3; assay: cell-based or functional assay
[34] = target: H5N1 virus strain G1; assay: cell-based or functional assay
[35] = target: H5N1 virus strain H1; assay: cell-based or functional assay
[36] = target: H5N1 virus strain H2; assay: cell-based or functional assay
[37] = target: Bar-headed GS/QH/15/2005 (H5N1) (Influenza A virus Bar-headed GS/QH/15/2005 (H5N1)); assay: cell-based or functional assay
[38] = target: H5N1 virus CK/HK/213/03 (Influenza A virus CK/HK/213/03); assay: cell-based or functional assay
[39] = target: H5N1 virus CK/IDN/2A/04 (Influenza A virus CK/IDN/2A/04); assay: cell-based or functional assay
[40] = target: H5N1 virus CP Heron/HK/18/05 (Influenza A virus CP Heron/HK/18/05); assay: cell-based or functional assay
[41] = target: H5N1 virus DK/IDN/MS/04 (Influenza A virus DK/IDN/MS/04); assay: cell-based or functional assay
[42] = target: H5N1 virus Oriental Magpie Robin/HK/366/2006 (Influenza A virus Oriental Magpie Robin/HK/366/2006); assay: cell-based or functional assay

Work on anti-Flu A Medix 7304 antibody yielded a Signal/noise of test line [1] of 896, a Signal/noise of test line [2] of 493 and a Signal/noise of test line [3] of 3.9. It also gave a Signal/noise of test line [4] of 246 and a Signal/noise of test line [5] of 607.

“Anti-Flu B nucleoprotein M2110171 (Fitzgerald) (antibody)” showed a Signal/noise of test line [6] of 0.5, a Signal/noise of test line [7] of 0.4 and a Signal/noise of test line [8] of 376. For the same molecule, the Signal/noise of test line [9] was 0.6 and the Signal/noise of test line [10] was 1.

B1: 8H5 single chain antibody (scFv, V domains shown)
VH: QVQLQQSGAELMKPGASVKISCKATGYTFSNYWIEWIKQRPGHGLEWIGEILPGSDRTNYNGKFKGKATFTADTSSNTAHMQLSSLTSEDSAVYYCANRYDGYYFGLDYWGQGTSVAVSS
VL: EIVLTQSPAIMSASLGEKVTMSCRASSSVNFVYWYQQRSDASPKLLIYYSSNLAPGVPPRFSGSGSGNSYSLTISGLEGEDAATYYCQHFTSSPYTFGGGTNLEIKR
With B1 the HI titer n (titer = 2^n) (n-th power of 2) [11] was 3.5, the HI titer n (titer = 2^n) (n-th power of 2) [12] was 4.5 and the HI titer n (titer = 2^n) (n-th power of 2) [13] was 3.5. It also gave an HI titer n (titer = 2^n) (n-th power of 2) [14] of 4, an HI titer n (titer = 2^n) (n-th power of 2) [15] of 3 and an HI titer n (titer = 2^n) (n-th power of 2) [16] of 3. The HI titer n (titer = 2^n) (n-th power of 2) [17] was 2.5, the HI titer n (titer = 2^n) (n-th power of 2) [18] was 4 and the HI titer n (titer = 2^n) (n-th power of 2) [19] was 0. For the same molecule, the HI titer n (titer = 2^n) (n-th power of 2) [20] was 5, the HI titer n (titer = 2^n) (n-th power of 2) [21] was 5 and the HI titer n (titer = 2^n) (n-th power of 2) [22] was 0. For the same molecule, the HI titer n (titer = 2^n) (n-th power of 2) [23] was 3.5, the HI titer n (titer = 2^n) (n-th power of 2) [24] was 4 and the HI titer n (titer = 2^n) (n-th power of 2) [25] was 3. It also gave an HI titer n (titer = 2^n) (n-th power of 2) [26] of 1, an HI titer n (titer = 2^n) (n-th power of 2) [27] of 0 and an HI titer n (titer = 2^n) (n-th power of 2) [28] of 2.5. For the same molecule, the HI titer n (titer = 2^n) (n-th power of 2) [29] was 2, the HI titer n (titer = 2^n) (n-th power of 2) [30] was 0 and the HI titer n (titer = 2^n) (n-th power of 2) [31] was 0. The HI titer n (titer = 2^n) (n-th power of 2) [32] was 0, the HI titer n (titer = 2^n) (n-th power of 2) [33] was 0 and the HI titer n (titer = 2^n) (n-th power of 2) [34] was 0. For the same molecule, the HI titer n (titer = 2^n) (n-th power of 2) [35] was 0 and the HI titer n (titer = 2^n) (n-th power of 2) [36] was 0.

B2: 4D1 single chain antibody (scFv)
scFv: QVQLQQPGAELVKPGASVNLSCKASGYTFTSYWMHWVKQRPGQGLEWIGEIDPSDSFTTYNQNFKDRATLTVDKSSSTAYMQLRSLTSEDSAVYYCARGGPGDFRYAMDYWGQGTSVTVSSGGGGSDILMTQSPSSMSVSLGDTVSITCHASQGISSNIGWLQQKPGKSFKGLIYHGTNLEDGVPSRFSGSGSGADYSLTISSLESEDFADYYCVQYVQFPYTFGGGTKLEIKRA
Work on B2 yielded an HI titer n (titer = 2^n) (n-th power of 2) [11] of over 8, an HI titer n (titer = 2^n) (n-th power of 2) [12] of over 8 and an HI titer n (titer = 2^n) (n-th power of 2) [13] of over 8. For the same molecule, the HI titer n (titer = 2^n) (n-th power of 2) [14] was over 8, the HI titer n (titer = 2^n) (n-th power of 2) [15] was 7 and the HI titer n (titer = 2^n) (n-th power of 2) [16] was 6. It also gave an HI titer n (titer = 2^n) (n-th power of 2) [17] of over 8, an HI titer n (titer = 2^n) (n-th power of 2) [18] of over 8 and an HI titer n (titer = 2^n) (n-th power of 2) [19] of 0. It also gave an HI titer n (titer = 2^n) (n-th power of 2) [20] of over 8, an HI titer n (titer = 2^n) (n-th power of 2) [21] of over 8 and an HI titer n (titer = 2^n) (n-th power of 2) [22] of 0. It also gave an HI titer n (titer = 2^n) (n-th power of 2) [23] of over 8, an HI titer n (titer = 2^n) (n-th power of 2) [24] of over 8 and an HI titer n (titer = 2^n) (n-th power of 2) [25] of over 8. The HI titer n (titer = 2^n) (n-th power of 2) [26] was over 8, the HI titer n (titer = 2^n) (n-th power of 2) [27] was over 8 and the HI titer n (titer = 2^n) (n-th power of 2) [28] was over 8. The HI titer n (titer = 2^n) (n-th power of 2) [29] was 7.5, the HI titer n (titer = 2^n) (n-th power of 2) [30] was 1 and the HI titer n (titer = 2^n) (n-th power of 2) [31] was 1. It also gave an HI titer n (titer = 2^n) (n-th power of 2) [32] of 5, an HI titer n (titer = 2^n) (n-th power of 2) [33] of 3 and an HI titer n (titer = 2^n) (n-th power of 2) [34] of 3.5. It also gave an HI titer n (titer = 2^n) (n-th power of 2) [35] of 6 and an HI titer n (titer = 2^n) (n-th power of 2) [36] of 4.

B3: 10F7 single chain antibody (scFv)
scFv: QVQLQQPGAELVKPGASVKLSCKASGYTFTSYWMHWVKQRPGQGLEWIGEIDPSDSYTNYNQKFKGKATLTVDKSSSTAYMQLSSLTSEDSAVYYCARGGTGDFHYAMDYWGQGTSVTVSSGGGGSDILMTQSPSSMSVSLGDTVSITCHASQGISSNIGWLQQKPGKSFKGLIYHGTNLEDGVPSRFSGSGSGADYSLTISSLESEDFADYYCVQYVQFPYTFGGGTKLEIKR
Molecule B3 has a neutralization: dilution of 10F7 scFv (fold dilution) [37] of 16, a neutralization: dilution of 10F7 scFv (fold dilution) [38] of under 1 and a neutralization: dilution of 10F7 scFv (fold dilution) [39] of 32. It also gave a neutralization: dilution of 10F7 scFv (fold dilution) [40] of 8, a neutralization: dilution of 10F7 scFv (fold dilution) [41] of 16 and a neutralization: dilution of 10F7 scFv (fold dilution) [42] of under 1. It also gave an HI titer n (titer = 2^n) (n-th power of 2) [11] of over 8, an HI titer n (titer = 2^n) (n-th power of 2) [12] of over 8 and an HI titer n (titer = 2^n) (n-th power of 2) [13] of over 8. It also gave an HI titer n (titer = 2^n) (n-th power of 2) [14] of over 8, an HI titer n (titer = 2^n) (n-th power of 2) [15] of 7.5 and an HI titer n (titer = 2^n) (n-th power of 2) [16] of 6.5. For the same molecule, the HI titer n (titer = 2^n) (n-th power of 2) [17] was 6, the HI titer n (titer = 2^n) (n-th power of 2) [18] was 7 and the HI titer n (titer = 2^n) (n-th power of 2) [19] was 0. The HI titer n (titer = 2^n) (n-th power of 2) [20] was over 8, the HI titer n (titer = 2^n) (n-th power of 2) [21] was over 8 and the HI titer n (titer = 2^n) (n-th power of 2) [22] was 0. It also gave an HI titer n (titer = 2^n) (n-th power of 2) [23] of 7, an HI titer n (titer = 2^n) (n-th power of 2) [24] of 7 and an HI titer n (titer = 2^n) (n-th power of 2) [25] of 7. For the same molecule, the HI titer n (titer = 2^n) (n-th power of 2) [26] was 2, the HI titer n (titer = 2^n) (n-th power of 2) [27] was 1 and the HI titer n (titer = 2^n) (n-th power of 2) [28] was 2.5. For the same molecule, the HI titer n (titer = 2^n) (n-th power of 2) [29] was 2.5, the HI titer n (titer = 2^n) (n-th power of 2) [30] was 0 and the HI titer n (titer = 2^n) (n-th power of 2) [31] was 0. The HI titer n (titer = 2^n) (n-th power of 2) [32] was 0, the HI titer n (titer = 2^n) (n-th power of 2) [33] was 0 and the HI titer n (titer = 2^n) (n-th power of 2) [34] was 0. It also gave an HI titer n (titer = 2^n) (n-th power of 2) [35] of under 1 and an HI titer n (titer = 2^n) (n-th power of 2) [36] of 0.
